Results taken from paper doi:10.1101/2025.10.28.685015 (bioRxiv, 2025).
No end group written: not given here.

Molecular target: T1, biotinylated ALFA-tag peptide (WT) (synthetic construct, also: biotin with double DoA linker, end not given here)
T1 chain: SRLEEELRRRLTE
Assay: BLI

B1: ALFA nanobody (NbALFA) (VHH)
VHH: EVQLQESGGGLVQPGGSLRLSCTASGVTISALNAMAMGWYRQAPGERRVMVAAVSERGNAMYRESVQGRFTVTRDFTNKMVSLQMDNLKPEDTAVYYCHVLEDRVDSFHDYWGQGTQVTVSS
With B1 the Kd was 0.165 ± 0.002 nM.
